This is an account of results in US20180246086A1.

The assay concerns the target Hapten-1-BSA, a general complete antigen of type I pyrethroid (bovine) (UniProt P02769). Nature of the assay: indirect non-competitive ELISA, plate coated with Hapten-1-BSA at 2.0, 1.0, 0.5 and 0.25 µg/mL, antibody titrated. On the technique in general: ELISA stands for enzyme-linked immunosorbent assay.

Chain of Hapten-1-BSA, a general complete antigen of type I pyrethroid (bovine) (P02769 25-607 limits assumed, form in doubt): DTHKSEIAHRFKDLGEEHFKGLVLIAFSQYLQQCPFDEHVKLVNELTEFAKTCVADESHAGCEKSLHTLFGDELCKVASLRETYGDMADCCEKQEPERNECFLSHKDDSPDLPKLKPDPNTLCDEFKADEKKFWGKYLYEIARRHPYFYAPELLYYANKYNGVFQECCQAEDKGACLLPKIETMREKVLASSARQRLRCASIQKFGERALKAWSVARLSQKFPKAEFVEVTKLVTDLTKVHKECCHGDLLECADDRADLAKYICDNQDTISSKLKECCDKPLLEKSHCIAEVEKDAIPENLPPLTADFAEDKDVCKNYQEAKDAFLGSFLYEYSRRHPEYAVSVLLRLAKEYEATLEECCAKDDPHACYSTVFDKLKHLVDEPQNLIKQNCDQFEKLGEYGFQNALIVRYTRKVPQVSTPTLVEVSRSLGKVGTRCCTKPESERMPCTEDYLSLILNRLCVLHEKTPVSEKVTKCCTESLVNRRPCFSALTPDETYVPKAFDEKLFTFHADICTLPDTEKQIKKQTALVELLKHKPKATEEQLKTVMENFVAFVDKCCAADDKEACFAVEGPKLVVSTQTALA

B1: universal monoclonal antibody against type I pyrethroid secreted by hybridoma cell line QW8# (antibody, IgG2a, V domains shown)
VH: QVTLKESGPGILQPSQTLSLTCSFSGFSLSTYGIGIGWIRQSSGRGLEWLAHIWWNDNRYYNIALKSRLTISKDASNNQFFLKLASVDTADIATYYCVRGYGRPFYAMDYWGQGTTVTVSS
VL: QAVVTQESALTTSPGETVTLTCRSSTGAVTTSNYVNWVQEKPDHLFTGLIGGTNNRGPGVPARFSGSLIGDKAALTITGTQTEDEAIYFCALWYSNHWVFGGGTKLTVL
Molecule B1 returned a Ka of 2.16e+08 M⁻¹.
